Assay results taken from the supplement of paper PMC11246515.
± gives the standard deviation of the averaged measurements.

Assay: total protein half-life in vivo (active degradation + dilution); higher = more stable protein
[1] = E. coli NCM3722 delta-clpP delta-lon delta-hslV, growth: N-lim chemostat, doubling time 6 h
[2] = E. coli NCM3722 delta-clpP, growth: N-lim chemostat, doubling time 6 h
[3] = E. coli NCM3722 delta-hslV, growth: N-lim chemostat, doubling time 6 h
[4] = E. coli NCM3722 delta-lon, growth: N-lim chemostat, doubling time 6 h
[5] = E. coli NCM3722 delta-smpB, growth: N-lim chemostat, doubling time 6 h
[6] = wild type E. coli NCM3722, growth: C-lim chemostat, doubling time 3 h
[7] = wild type E. coli NCM3722, growth: C-lim chemostat, doubling time 6 h
[8] = wild type E. coli NCM3722, growth: C-lim chemostat, doubling time 12 h
[9] = wild type E. coli NCM3722, growth: N-lim chemostat, doubling time 6 h
[10] = wild type E. coli NCM3722, growth: N-lim chemostat, doubling time 12 h
[11] = wild type E. coli NCM3722, growth: P-lim chemostat, doubling time 6 h
[12] = wild type E. coli NCM3722, growth: P-lim chemostat, doubling time 12 h

Sequence	total protein half-life in vivo [1] [h]	total protein half-life in vivo [2] [h]	total protein half-life in vivo [3] [h]	total protein half-life in vivo [4] [h]	total protein half-life in vivo [5] [h]	total protein half-life in vivo [6] [h]	total protein half-life in vivo [7] [h]	total protein half-life in vivo [8] [h]	total protein half-life in vivo [9] [h]	total protein half-life in vivo [10] [h]	total protein half-life in vivo [11] [h]	total protein half-life in vivo [12] [h]
MKQLTILGSTGSIGCSTLDVVRHNPEHFRVVALVAGKNVTRMVEQCLEFSPRYAVMDDEASAKLLKTMLQQQGSRTEVLSGQQAACDMAALEDVDQVMAAIVGAAGLLPTLAAIRAGKTILLANKESLVTCGRLFMDAVKQSKAQLLPVDSEHNAIFQSLPQPIQHNLGYADLEQNGVVSILLTGSGGPFRETPLRDLATMTPDQACRHPNWSMGRKISVDSATMMNKGLEYIEARWLFNASASQMEVLIHPQSVIHSMVRYQDGSVLAQLGEPDMRTPIAHTMAWPNRVNSGVKPLDFCKLSALTFAAPDYDRYPCLKLAMEAFEQGQAATTALNAANEITVAAFLAQQIRFTDIAALNLSVLEKMDMREPQCVDDVLSVDANAREVARKEVMRLAS	4.22 ± 0.36	3.69 ± 0.044	4.05 ± 0.23	3.93 ± 0.36	3.84 ± 0.34	2.81 ± 0.21	5.32 ± 0.24	9.19 ± 0.66	3.64 ± 0.13	5.81 ± 0.34	5.88 ± 0.068	9.74 ± 0.61
MKSILIEKPNQLAIVEREIPTPSAGEVRVKVKLAGICGSDSHIYRGHNPFAKYPRVIGHEFFGVIDAVGEGVESARVGERVAVDPVVSCGHCYPCSIGKPNVCTTLAVLGVHADGGFSEYAVVPAKNAWKIPEAVADQYAVMIEPFTIAANVTGHGQPTENDTVLVYGAGPIGLTIVQVLKGVYNVKNVIVADRIDERLEKAKESGADWAINNSQTPLGEIFTEKGIKPTLIIDAACHPSILKEAVTLASPAARIVLMGFSSEPSEVIQQGITGKELSIFSSRLNANKFPIVIDWLSKGLIKPEKLITHTFDFQHVADAISLFEQDQKHCCKVLLTFSE	3.84 ± 0.53	–	–	–	2.11	2.26 ± 0.28	3.455 ± 0.03	8.98 ± 3.8	2.37	–	4.75	7.18
MSPTIYDIARVAGVSKSTVSRVLNKQTNISPEAREKVLRAIEELQYQPNKLARALTSSGFDAIMVISTRSTKTTAGNPFFSEVLHAITAKAEEEGFDVILQTSHNPAEDLQKCESKIKQKMIKGIIMLSSPADESFFAQLDKYDIPVVVIGKVEGQYAHVYSVDTDNFGDSIALTDALIESGHQNIACLHAPLDVHVSVDRVNGYKQSLAAHNIAVRDEWIVDGGYTHETALKAARQLLSQSPLPEAVFATDSLKLMSIYRAAAEKNIAIPQQLAVVGYSNETLSFILTPAPGGIDVPTQELGQQSCELLFRLISGKPSPQNITVATHMTLK	5.84 ± 0.79	4.18 ± 1.6	5.76 ± 0.6	–	4.86 ± 0.18	2.48 ± 0.17	5.41 ± 0.97	10.2 ± 2.9	5.34 ± 0.57	9.3 ± 0.42	5.06 ± 0.33	10.6 ± 2.2
MQQKMIQFSGDVSLPAVGQGTWYMGEDASQRKTEVAALRAGIELGLTLIDTAEMYADGGAEKVVGEALTGLREKVFLVSKVYPWNAGGQKAINACEASLRRLNTDYLDLYLLHWSGSFAFEETVAAMEKLIAQGKIRRWGVSNLDYADMQELWQLPGGNQCATNQVLYHLGSRGIEYDLLPWCQQQQMPVMAYSPLAQAGRLRNGLLKNAVVNEIAHAHNISAAQVLLAWVISHQGVMAIPKAATIAHVQQNAAVLEVELSSAELAMLDKAYPAPKGKTALDMV	> 8	–	–	–	–	2.9 ± 0.38	5.61 ± 0.92	8.61 ± 1.4	–	–	5.03 ± 0.38	9.97 ± 0.73
MNKEQSADDPSVDLIRVKNMLNSTISMSYPDVVIACIEHKVSLEAFRAIEAALVKHDNNMKDYSLVVD	> 8	–	> 8	> 8	–	2.94 ± 0.043	–	9.95	–	10.8 ± 6	4.21	–
MSPIEKSSKLENVCYDIRGPVLKEAKRLEEEGNKVLKLNIGNPAPFGFDAPDEILVDVIRNLPTAQGYCDSKGLYSARKAIMQHYQARGMRDVTVEDIYIGNGVSELIVQAMQALLNSGDEMLVPAPDYPLWTAAVSLSSGKAVHYLCDESSDWFPDLDDIRAKITPRTRGIVIINPNNPTGAVYSKELLMEIVEIARQHNLIIFADEIYDKILYDDAEHHSIAPLAPDLLTITFNGLSKTYRVAGFRQGWMVLNGPKKHAKGYIEGLEMLASMRLCANVPAQHAIQTALGGYQSISEFITPGGRLYEQRNRAWELINDIPGVSCVKPRGALYMFPKIDAKRFNIHDDQKMVLDFLLQEKVLLVQGTAFNWPWPDHFRIVTLPRVDDIELSLSKFARFLSGYHQL [P0A959]	4.25 ± 0.35	3.41 ± 0.16	3.89 ± 0.23	4.86 ± 1.1	3.88 ± 0.19	3.14 ± 0.28	5.63 ± 0.23	9.16 ± 0.84	3.76 ± 0.29	7.13 ± 0.82	6.06 ± 0.87	11.78 ± 0.1
MTNPLLTPFELPPFSKILPEHVVPAVTKALNDCRENVERVVAQGAPYTWENLCQPLAEVDDVLGRIFSPVSHLNSVKNSPELREAYEQTLPLLSEYSTWVGQHEGLYKAYRDLRDGDHYATLNTAQKKAVDNALRDFELSGIGLPKEKQQRYGEIATRLSELGNQYSNNVLDATMGWTKLVTDEAELAGMPESALAAAKAQAEAKELEGYLLTLDIPSYLPVMTYCDNQALREEMYRAYSTRASDQGPNAGKWDNSKVMEEILALRHELAQLLGFENYAFKSLATKMAENPQQVLDFLTDLAKRARPQGEKELAQLRAFAKAEFGVDELQPWDIAYYSEKQKQHLYSISDEQLRPYFPENKAVNGLFEVVKRIYGITAKERKDVDVWHPDVRFFELYDENNELRGSFYLDLYARENKRGGAWMDDCVGQMRKADGSLQKPVAYLTCNFNRPVNGKPALFTHDEVITLFHEFGHGLHHMLTRIETAGVSGISGVPWDAVELPSQFMENWCWEPEALAFISGHYETGEPLPKELLDKMLAAKNYQAALFILRQLEFGLFDFRLHAEFRPDQGAKILETLAEIKKLVAVVPSPSWGRFPHAFSHIFAGGYAAGYYSYLWADVLAADAFSRFEEEGIFNRETGQSFLDNILSRGGSEEPMDLFKRFRGREPQLDAMLEHYGIKG	4.42 ± 0.21	4.18 ± 0.052	4.03 ± 0.15	3.74 ± 0.18	3.55 ± 0.062	2.795 ± 0.023	5.17 ± 0.21	8.7 ± 0.94	3.68 ± 0.23	5.67 ± 0.55	5.1797 ± 0.00065	9.96 ± 1.1
MSGTLLAFDFGTKSIGVAVGQRITGTARPLPAIKAQDGTPDWNIIERLLKEWQPDEIIVGLPLNMDGTEQPLTARARKFANRIHGRFGVEVKLHDERLSTVEARSGLFEQGGYRALNKGKVDSASAVIILESYFEQGY [P0A8I1]	4.82 ± 0.066	4.88	3.57 ± 0.011	4.27 ± 0.32	3.5663 ± 0.00095	2.88 ± 0.18	5.4 ± 0.77	10.2 ± 0.33	3.8577 ± 0.0028	7.41 ± 2.2	4.95 ± 0.11	8.63 ± 2.5
MNLDDIINSMMPEVYQRLSTAVELGKWPDGVALTEEQKENCLQLVMLWQARHNIEAQHMTIDTNGQMVMKSKQQLKEDFGISAKPIAMFK	4.42 ± 2.1	0.712	–	–	–	0.231 ± 0.0036	0.237 ± 0.16	0.116 ± 0.16	0.172	–	0.371 ± 0.17	1.17 ± 1.3
MSVVISDAWRQRFGGTARLYGEKALQLFADAHICVVGIGGVGSWAAEALARTGIGAITLIDMDDVCVTNTNRQIHALRDNVGLAKAEVMAERIRQINPECRVTVVDDFVTPDNVAQYMSVGYSYVIDAIDSVRPKAALIAYCRRNKIPLVTTGGAGGQIDPTQIQVTDLAKTIQDPLAAKLRERLKSDFGVVKNSKGKLGVDCVFSTEALVYPQSDGTVCAMKATAEGPKRMDCASGFGAATMVTATFGFVAVSHALKKMMAKAARQG	4.94 ± 0.44	–	3.85 ± 1.2	–	5.05 ± 0.58	3.36 ± 0.59	5.77 ± 0.26	9.6 ± 0.78	4.87 ± 0.32	6.86 ± 1.1	5.2 ± 0.15	11.79 ± 0.028
MTQTLLAIENLSVGFRHQQTVRTVVNDVSLQIEAGETLALVGESGSGKSVTALSILRLLPSPPVEYLSGDIRFHGESLLHASDQTLRGVRGNKIAMIFQEPMVSLNPLHTLEKQLYEVLSLHRGMRREAARGEILNCLDRVGIRQAAKRLTDYPHQLSGGERQRVMIAMALLTRPELLIADEPTTALDVSVQAQILQLLRELQGELNMGMLFITHNLSIVRKLAHRVAVMQNGRCVEQNYAATLFASPTHPYTQKLLNSEPSGDPVPLPEPASTLLDVEQLQVAFPIRKGILKRIVDHNVVVKNISFTLRAGETLGLVGESGSGKSTTGLALLRLINSQGSIIFDGQPLQNLNRRQLLPIRHRIQVVFQDPNSSLNPRLNVLQIIEEGLRVHQPTLSAAQREQQVIAVMHEVGLDPETRHRYPAEFSGGQRQRIAIARALILKPSLIILDEPTSSLDKTVQAQILTLLKSLQQKHQLAYLFISHDLHVVRALCHQVIILRQGEVVEQGPCARVFATPQQEYTRQLLALS	–	5.76 ± 0.31	6.42 ± 0.031	4.55 ± 0.74	5.67 ± 0.15	3 ± 0.32	5.64 ± 0.14	13.1 ± 0.73	5.87 ± 0.26	11.6	6.17 ± 0.13	11.9 ± 0.82
MSFLLPIQLFKILADETRLGIVLLLSELGELCVCDLCTALDQSQPKISRHLALLRESGLLLDRKQGKWVHYRLSPHIPAWAAKIIDEAWRCEQEKVQAIVRNLARQNCSGDSKNICS	6.03	5.66	–	5.43	5.01 ± 0.46	2.68	–	–	4.89	9.59	5.5	9.37
